# Assay results as given in publication PMC10769881, “Plasmid-encoded toxin defence mediates mutualistic microbial interactions” (Nature Microbiology, 2023).
# How the values were obtained:
# [1] = tested on: OCCCO; assay: purified protein; type: biochemical, Enterococcus faecalis; details: NAD+ close to saturation, 37 °C, pH of assay not told, kcat printed as Vmax per enzyme molecule, closely corresponding to kcat
# [2] = tested on: NC(=O)c1ccc[n+]([C@@H]2O[C@H](COP(=O)(O)OP(=O)(O)OC[C@H]3O[C@@H](n4cnc5c(N)ncnc54)[C@H](O)[C@@H]3O)[C@@H](O)[C@H]2O)c1; assay: purified protein; type: biochemical, Enterococcus faecalis; details: 1,3-propanediol oxidation direction, 37 °C, 1,3-propanediol as co-substrate, its concentration and pH of assay not told, varied: cofactor
substance,measurement,setting,value
"1,3-propanediol dehydrogenase (1,3-PD), rumen plasmid-encoded (Enterococcus faecalis)",Km,[1],17 ± 6 mM
same,kcat,[1],11 ± 1 min⁻¹
same,Km,[2],0.25 ± 0.04 mM
